Test results published in patent US20260234255A1 (Genmab, published 2026).

Legend:
human CD30 [1] = molecular target: T1, human CD30 (human, UniProt P28908 19-595); assay: flow cytometry, HDLM-2 cells
T1 construct: also called huCD30; TNFRSF8
T1 sequence: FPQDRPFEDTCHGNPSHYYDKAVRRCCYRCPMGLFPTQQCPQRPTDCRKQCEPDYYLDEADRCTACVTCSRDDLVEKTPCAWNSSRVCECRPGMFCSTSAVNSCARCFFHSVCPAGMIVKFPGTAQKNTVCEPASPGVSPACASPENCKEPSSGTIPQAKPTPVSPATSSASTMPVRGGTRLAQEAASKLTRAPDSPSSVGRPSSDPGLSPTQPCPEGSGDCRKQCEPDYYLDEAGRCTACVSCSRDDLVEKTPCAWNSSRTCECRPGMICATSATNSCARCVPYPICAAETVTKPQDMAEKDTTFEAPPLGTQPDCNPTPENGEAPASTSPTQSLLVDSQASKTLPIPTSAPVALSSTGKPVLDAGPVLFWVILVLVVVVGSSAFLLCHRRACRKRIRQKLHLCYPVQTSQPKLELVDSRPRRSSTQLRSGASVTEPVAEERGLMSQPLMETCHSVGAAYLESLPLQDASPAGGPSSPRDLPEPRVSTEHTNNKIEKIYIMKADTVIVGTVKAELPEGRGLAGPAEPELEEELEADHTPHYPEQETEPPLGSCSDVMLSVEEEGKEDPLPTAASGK
Description: (§1) Binding of CD3×CD30 bispecific antibodies to two CD30-expressing human tumor cell lines SU-DHL-1 (ALCL; ATCC, cat. no. ACC 356) and HDLM-2 (HL; ATCC, cat. no. CRL-2965) was analyzed […] by flow cytometry.
(§2) Cells (3×10⁴ cells/well) were incubated in polystyrene 96-well round-bottom plates (Greiner bio-one, cat. no. 650180) with serial dilutions of antibodies (range 0.0046 to 10 μg/mL in 3-fold dilution steps) in 50 μL staining buffer at 4° C. for 30 min. After washing twice in staining buffer, cells were incubated with 50 μL secondary antibody at 4° C. for 30 min. […] Next, cells were washed twice in staining buffer, resuspended in 100 μL staining buffer supplemented with TO-PRO-3 iodide (Thermo Fisher Scientific; cat. no. T3605; 1:8000 dilution) and analyzed on a FACSCelesta flow cytometer (BD Biosciences, USA). Live cells were gated based on FSC/SSC and absence of TOPRO-3 staining. Binding curves were analyzed by non-linear regression of log-transformed data (sigmoidal dose-response with variable slope, four parameters) using GraphPad Prism V7.02 software (GraphPad Software, San Diego, CA, USA).

human CD30 [2] = molecular target: T1, human CD30; assay: flow cytometry, SU-DHL-1 cells
Description: as §1, §2

human CD30 [3] = molecular target: T1, human CD30; assay: flow cytometry, Expi293F cells transfected with human CD30
Description: Cells (3×10⁴ cells/well) were incubated in polystyrene 96-well round-bottom plates (Greiner bio-one, cat. no. 650180) with serial dilutions of antibodies (ranging from 0.005 to 10 μg/mL in 3-fold dilution steps) in 100 μL staining buffer at 4° C. for 30 min. Experiments were performed in technical duplicate. After washing twice in staining buffer, cells were incubated in 50 μL secondary antibody at 4° C. for 30 min. As a secondary antibody, R-PE-conjugated goat-anti-human IgG (Jackson ImmunoResearch, UK; cat. no. 109⁻¹¹⁶-098) diluted 1:400 in staining buffer was used. Cells were washed twice in staining buffer, resuspended in 30 μL staining buffer containing 0.4% EDTA and analyzed on an iQue Screener (Intellicyt Corporation, USA). Binding curves were analyzed using non-linear regression (sigmoidal dose-response with variable slope) using GraphPad Prism V9.0.0 software (GraphPad Software, San Diego, CA, USA).

[4] = molecular target: T2, rhesus monkey (Macaca mulatta) CD30 (rhesus monkey, UniProt P28908 19-595 (human entry)); assay: flow cytometry, Expi293F cells transfected with rhesus monkey CD30
T2 construct: also called mmCD30
T2 chain: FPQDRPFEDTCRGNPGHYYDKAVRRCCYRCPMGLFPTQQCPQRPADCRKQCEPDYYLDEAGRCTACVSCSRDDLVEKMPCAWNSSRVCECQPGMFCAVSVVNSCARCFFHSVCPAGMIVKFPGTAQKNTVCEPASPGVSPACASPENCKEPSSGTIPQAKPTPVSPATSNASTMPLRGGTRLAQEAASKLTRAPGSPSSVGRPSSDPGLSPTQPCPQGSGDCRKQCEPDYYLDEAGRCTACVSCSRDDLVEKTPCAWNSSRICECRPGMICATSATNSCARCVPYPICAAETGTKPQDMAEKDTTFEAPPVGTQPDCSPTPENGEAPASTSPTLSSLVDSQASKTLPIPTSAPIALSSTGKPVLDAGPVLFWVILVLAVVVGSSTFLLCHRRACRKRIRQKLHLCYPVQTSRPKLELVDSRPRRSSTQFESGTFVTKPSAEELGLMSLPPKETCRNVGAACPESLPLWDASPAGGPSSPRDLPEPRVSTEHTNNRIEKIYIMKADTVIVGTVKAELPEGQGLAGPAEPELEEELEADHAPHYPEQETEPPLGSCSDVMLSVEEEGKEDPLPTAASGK

[5] = molecular target: T3, cynomolgus monkey (Macaca fascicularis) CD30 (cynomolgus monkey, UniProt P28908 19-595 (human entry)); assay: flow cytometry, HEK293 cells transfected with mfCD30
T3 construct: also called mfCD30
T3 chain: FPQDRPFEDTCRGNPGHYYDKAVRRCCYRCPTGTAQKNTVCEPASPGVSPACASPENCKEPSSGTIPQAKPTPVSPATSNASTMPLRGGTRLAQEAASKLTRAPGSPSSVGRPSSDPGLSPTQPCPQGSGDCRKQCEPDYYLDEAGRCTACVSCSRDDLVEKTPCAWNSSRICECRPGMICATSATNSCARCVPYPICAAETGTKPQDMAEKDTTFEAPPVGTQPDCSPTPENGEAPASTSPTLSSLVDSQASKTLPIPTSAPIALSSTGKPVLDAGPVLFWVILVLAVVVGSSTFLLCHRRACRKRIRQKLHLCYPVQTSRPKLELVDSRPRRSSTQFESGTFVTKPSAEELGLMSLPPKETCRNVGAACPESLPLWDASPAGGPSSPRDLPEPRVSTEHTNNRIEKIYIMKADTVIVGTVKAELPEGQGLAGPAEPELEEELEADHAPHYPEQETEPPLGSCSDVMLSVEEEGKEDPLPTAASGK
Description: Cells (3×10⁴ cells/well) were incubated in polystyrene 96-well round-bottom plates (Thermo Scientific, cat. no. 163320) with serial dilutions of antibodies (ranging from 0.0002 to 50 μg/mL in 4-fold dilution steps) in 50 μL staining buffer at 4° C. for 30 min. Experiments were performed in technical duplicate. After washing twice in staining buffer, cells were incubated in 50 μL secondary antibody at 4° C. for 30 min. As a secondary antibody, R-PE-conjugated goat-anti-human IgG (Jackson ImmunoResearch, UK; cat. no. 109⁻¹¹⁶-098) diluted 1:200 in staining buffer was used. Cells were washed twice in staining buffer, resuspended in 30 μL staining buffer containing 0.4% EDTA and the ToPro-3 viability marker (Invitrogen, cat. no. T3605) diluted 1:10,000. Cells were analyzed on an iQue Screener (Intellicyt Corporation, USA). Binding curves were analyzed using non-linear regression (sigmoidal dose-response with variable slope) using GraphPad Prism V9.0.0 software (GraphPad Software, San Diego, CA, USA).

B1: IgG1-CD30-T408-FEAR (antibody, V domains shown)
VH: QVQLQQPGAELVRPGASVKLSCKASGYTFTSYWINWVKQRPGQGLEWIGNIYPSDSYSNYNQKFKDKATLTVDKSSSTAYMQLSSPTSEDSAVYYCTLGSYWGQGTLVTVSA
VL: not shown
notes: Monospecific, bivalent parental antibody
- EC50 (read off the curve) (human CD30 [1]): ~1 µg/mL
- EC50 (read off the curve) (human CD30 [2]): ~0.6 µg/mL
- EC50 (read off the curve) (human CD30 [3]): ~0.2 µg/mL
- EC50 (read off the curve) [4]: ~0.4 µg/mL

B2: bsG1-huCD3-FEALxb12-FERR (bispecific antibody, human IgG1, kappa, lambda)
heavy 1: not shown
light 1: not shown
heavy 2: QVQLVQSGAEVKKPGASVKVSCQASGYRFSNFVIHWVRQAPGQRFEWMGWINPYNGNKEFSAKFQDRVTFTADTSANTAYMELRSLRSADTAVYYCARVGPYSWDDSPQDNYYMDVWGKGTTVIVSSASTKGPSVFPLAPSSKSTSGGTAALGCLVKDYFPEPVTVSWNSGALTSGVHTFPAVLQSSGLYSLSSVVTVPSSSLGTQTYICNVNHKPSNTKVDKRVEPKSCDKTHTCPPCPAPEFERGPSVFLFPPKPKDTLMISRTPEVTCVVVDVSHEDPEVKFNWYVDGVEVHNAKTKPREEQYNSTYRVVSVLTVLHQDWLNGKEYKCKVSNKALPAPIEKTISKAKGQPREPQVYTLPPSREEMTKNQVSLTCLVKGFYPSDIAVEWESNGQPENNYKTTPPVLDSDGSFFLYSRLTVDKSRWQQGNVFSCSVMHEALHNHYTQKSLSLSPG
light 2: EIVLTQSPGTLSLSPGERATFSCRSSHSIRSRRVAWYQHKPGQAPRLVIHGVSNRASGISDRFSGSGSGTDFTLTITRVEPEDFALYYCQVYGASSYTFGQGTKLERKRTVAAPSVFIFPPSDEQLKSGTASVVCLLNNFYPREAKVQWKVDNALQSGNSQESVTEQDSKDSTYSLSSTLTLSKADYEKHKVYACEVTHQGLSSPVTKSFNRGEC
notes: Monovalent CD3 control antibody
- binding result [5]: no binding (tested: 0.0002 to 50 µg/mL)
